Tests used:
[1] = biological target: T1, KIR2DS2 (Homo sapiens, UniProt P43631); test: KIR2DS2 tetramer (KIR2DS2-PE) staining of peptide-loaded L721.174 cells; assay type: binding; conditions: L721.174 cells incubated overnight at 26° C. with peptide, flow cytometry
T1 construct: made in house
Method: A. The KIR2DS2 protein was expressed with a biotinylation C-terminal tag. Following biotinylation with the BirA enzyme, the KIR2DS2 protein was incubated with streptavidin-phycoerythrin to form fluorescent KIR2DS2-tetramers (KIR2DS2-PE). L721.174 cells were then incubated with indicated peptides. Cells were then stained with KIR2DS2-PE and analysed by flow cytometry. Shown are histogram plots. The bold numbers represent the mean fluorescent staining intensity of the KIR2DS2-PE staining of the cells in the presence of peptide and the non-bold numbers the staining in the absence of peptide. B. Represents the mean and standard error fluorescent intensities of the experiment in “A” following replicate experiments.
A. L721.174 cells were incubated with indicated peptides. Cells were then stained with KIR2DS2-PE (see FIG. 4) and analysed by flow cytometry. Shown are histogram plots. The bold numbers represent the mean fluorescent staining intensity of the KIR2DS2-PE staining of the cells in the presence of peptide and the non-bold numbers the staining in the absence of peptide. B. Represents the mean and standard error fluorescent intensities of the experiment in “A” following replicate experiments.
FIG. 13—KIR2DS2 tetramer staining on 174 cells with and without peptides. Peptides tested include IVDLMCHATF (SEQ ID NO: 1); VIDAMCHATL (SEQ ID NO: 2); AANVMAASL (SEQ ID NO: 3); and FLSDVPVATL (SEQ ID NO: 4). A negative control peptide VAPWNSFAL (SEQ ID NO: 12) and positive control peptide LNPSVAATL (SEQ ID NO: 5) were included. The mean fluorescence intensity of the KIR2DS2 tetramer staining is shown in the right hand corner of the graph.
With reference to FIG. 4A, the KIR2DS2 protein was expressed as a recombinant protein with a biotinylation C-terminal tag. Following biotinylation with the BirA enzyme, the KIR2DS2 protein was incubated with streptavidin-phycoerythrin to form fluorescent KIR2DS2-tetramers (KIR2DS2-PE). 3×10^5 L721.174 cells were then incubated overnight at 26° C. with indicated peptides at a concentration of […]. Cells were then stained with KIR2DS2-PE and analysed by flow cytometry. Shown are histogram plots. The bold numbers represent the mean fluorescent staining intensity of the KIR2DS2-PE staining of the cells in the presence of peptide and the non-bold numbers the staining in the absence of peptide. With reference to FIG. 4B, panel B represents the mean and standard error fluorescent intensities of the experiment in “A” following replicate experiments.
With reference to FIG. 5A, 3×10^5 L721.174 cells were incubated overnight at 26° C. with indicated peptides at a concentration of 200 μM. Cells were then stained with KIR2DS2-PE (see FIG. 4) and analysed by flow cytometry. Shown are histogram plots. The bold numbers represent the mean fluorescent staining intensity of the KIR2DS2-PE staining of the cells in the presence of peptide and the non-bold numbers the staining in the absence of peptide. With reference to FIG. 5B, panel B represents the mean and standard error fluorescent intensities of the experiment in “A” following replicate experiments.
With reference to FIG. 13, the KIR2DS2 protein was expressed as a recombinant protein with a biotinylation C-terminal tag. Following biotinylation with the BirA enzyme, the KIR2DS2 protein was incubated with streptavidin-phycoerythrin to form fluorescent KIR2DS2-tetramers (KIR2DS2-PE). […] Cells were then stained with KIR2DS2-PE and analysed by flow cytometry. […]

[2] = biological target: T2, HLA-Cw*0102 (Homo sapiens, UniProt P10321, A176E/A330V/A35S/A97T/C350S/D114A/D33F/L171W/L180R/L218V/M285V/M309V/M331V/P208H/Q277E/Q291P/R121W/R243W/R30K/S123C/S140Y/S297R/T329A/T363A/V272M/V319A); test: Peptide binding to HLA-Cw*0102 on L721.174 cells (cell surface MHC class I, flow cytometry); assay type: cell-based; conditions: increasing concentrations of peptide, overnight at 26° C.
Method: (§1) The HLA-Cw*0102-positive cell line L721.174 was incubated with increasing concentrations of the LNPSVAATL (SEQ ID NO: 5) peptide or a control peptide VAPWNSLSL (SEQ ID NO: 11). Cells were stained for cell surface of MHC class I and analysed by flow cytometry. The mean fluorescence intensity of cell surface MHC Class I was plotted against the peptide concentration.
as §1, with “HLA-Cw*0102 • positive” for “HLA-Cw*0102-positive”, “peptides IVDLMCHATF” for “LNPSVAATL”, “1); VIDAMCHATL (SEQ ID NO: 2); AANVMAASL (SEQ ID NO: 3); and FLSDVPVATL (SEQ ID NO: 4)” for “5) peptide”, “[…].” for “VAPWNSLSL (SEQ ID NO: 11).”
3×10^5 cells were used per condition. Following washing in PBS the cells were stained for cell surface of MHC class I and analysed by flow cytometry. The mean fluorescence intensity of cell surface MHC Class I was plotted against the peptide concentration.
With reference to FIG. 12, the HLA-Cw*0102-positive cell line L721.174 was incubated with increasing concentrations of the peptides IVDLMCHATF (SEQ ID NO: 1), VIDAMCHATL (SEQ ID NO: 2), AANVMAASL (SEQ ID NO: 3); and FLSDVPVATL (SEQ ID NO: 4) overnight at 26° C. 3×10^5 cells were used per condition. Following washing in PBS the cells were stained for cell surface of MHC class I and analysed by flow cytometry. The mean fluorescence intensity of cell surface MHC Class I was plotted against the peptide concentration.

[3] = system: NKL cell line transfected with KIR2DS2; test: Vav1 phosphorylation (pVav1 Western blot) in NKL cells transfected with KIR2DS2; assay type: cell-based; conditions: HLA-C*0304:ICP47:721.221 cells loaded with peptide; 5 minutes
Method: A. L721.174 cells were incubated with indicated peptides. The cells were then incubated with the NK cell line transfected with KIR2DS2. The cells were lysed and the KIR2DS2 was then immunoprecipitated from the mixture using the GL183 antibody coupled to protein-G beads. The immune precipitate was analysed by Western blotting using a phosphotyrosine antibody. The membrane was then stripped and reprobed with an antibody to DAP12 the molecule that transduces a positive signal from KIR2DS2. Shown are the regions on the blots at the level of DAP12 (12-15 kDa). B. L721.174 cells were incubated with indicated peptides. The cells were then incubated with the NK cell line transfected with KIR2DS2 or transfected with KIR2DL2. The cells were lysed in 1% NP-40 and then analysed by Western blotting using antibodies to pVav1 and then following stripping of the membrane to Vav1. Shown are Western blots around the 98 kDa region, and below them the corresponding densitometries for 3 independent experiments.
FIG. 7 1×10^6 L721.221-HLA-C*0304-ICP47 cells were incubated overnight at 26° C. with indicated peptides at a concentration of […]. The cells were then incubated with the NKL cell line transfected with KIR2DS2 or transfected with KIR2DL2 for 5 minutes. The cells were lysed in 1% NP-40 and then analysed by Western blotting using antibodies to pVav1 and then following stripping of the membrane to Vav1. Shown are Western blots around the 98 kDa region, and below them the corresponding densitometries for 2 independent experiments.
FIG. 14—The Dengue virus peptide IVDLMCHATF (SEQ ID NO: 1) activates KIR2DS2 positive NK cells. 174 cells were incubated with the IVDLMCHATF (SEQ ID NO: 1) and then KIR2DS2-positive transfected NKL cells or KIR2DL2-positve transfected NKL cells. Activation of NK cells was assessed by western blotting for phosphorylated Vav1, and compared to total Vav1.
With reference to FIG. 6A, 1×10^6 L721.174 cells were incubated overnight at 26° C. with indicated peptides at a concentration of […]. The cells were then incubated with the NK cell line transfected with KIR2DS2 for 5 minutes. The cells were lysed in 1% digitonin buffer and the KIR2DS2 was then immunoprecipitated from the mixture using the GL183 antibody coupled to protein-G beads. The immune precipitate was analysed by Western blotting using a phosphotyrosine antibody. […] The cells were lysed in 1% NP-40 and then analysed by Western blotting using antibodies to pVav1 and then following stripping of the membrane to Vav1. […]
With reference to FIG. 7, 1×10^6 HLA-C*0304:ICP47:721.221 cells were incubated overnight at 26° C. with indicated peptides at a concentration of […]. […] The cells were lysed in 1% NP-40 and then analysed by Western blotting using antibodies to pVav1 and then following stripping of the membrane to Vav1. […]

[4] = system: KIR2DS2-positive NK cells; test: CD107a degranulation of NK cells from KIR2DS2-positive donors cultured with peptide-loaded L721.174 cells; assay type: cell-based; conditions: KIR2DS2-positive donor, CH-L antibody positive NK cells, four hours, compared to no peptide
Method: (§2) A. cells were incubated in the presence or absence of peptides, and then cultured with NK cells from either a KIR2DS2-positive or KIR2DS2-negative donor. The level of CD107a (LAMP) expression was measured on NK cells positive for the CH-L antibody. This antibody binds to KIR2DS2, KIR2DL2 and KIR2DL3. B. Summary data from 5 KIR2DS2-positive and 6 KIR2DS2 • negative donors tested as per panel A of FIG. 2. To compare the different donors the data are normalized to 100% for the no peptide condition.
(§3) With reference to FIG. 2A, 3×10^5 L721.174 cells were incubated at 26° C. overnight in the presence or absence of peptides, and then cultured for four hours with NK cells from either a KIR2DS2-positive or KIR2DS2-negative donor. The level of CD107a (LAMP) expression was measured on NK cells positive for the CH-L antibody. This antibody binds to KIR2DS2, KIR2DL2 and KIR2DL3. […] With reference to FIG. 2B, summary data from 5 KIR2DS2-positive and 6 KIR2DS2 • negative donors were tested as per panel A of FIG. 2. To compare the different donors the data are normalized to 100% for the no peptide condition.

[5] = system: KIR2DS2-negative donor NK cells; test: CD107a degranulation of NK cells from KIR2DS2-negative donors cultured with peptide-loaded L721.174 cells; assay type: cell-based; conditions: CH-L antibody positive NK cells, four hours, compared to no peptide
Method: as §2, §3

[6] = biological target: T2, HLA-Cw*0102; conditions: control peptide, known binder; cited from earlier work

T1 sequence (P43631 22-245 limits assumed): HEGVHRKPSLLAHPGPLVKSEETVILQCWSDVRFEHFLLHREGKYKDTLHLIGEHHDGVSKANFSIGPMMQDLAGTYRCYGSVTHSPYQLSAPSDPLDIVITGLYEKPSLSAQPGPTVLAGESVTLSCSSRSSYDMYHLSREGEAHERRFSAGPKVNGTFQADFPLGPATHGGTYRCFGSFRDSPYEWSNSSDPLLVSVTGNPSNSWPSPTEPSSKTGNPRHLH

Sequence | KIR2DS2-PE tetramer binding to HLA-C*0102 and peptide [1] | binding to HLA-Cw*0102 (mean fluorescence intensity of cell surface MHC Class I) [2] | further results
AANVMAASL | KIR2DS2 BINDS | bind HLA-Cw*0102 | 
FLSDVPVATL | KIR2DS2 BINDS | bind HLA-Cw*0102 | 
GAVPDLATL |  |  | activation of KIR2DS2 (pVav1 vs Vav1) [3]: KIR2DS2 IS ACTIVATED
GAVPDLAWL |  |  | activation of KIR2DS2 (pVav1 vs Vav1) [3]: KIR2DS2 IS ACTIVATED
VAPWNSFAL [VAP-FA, negative control peptide, reference compound] |  |  | level of CD107a (LAMP) degranulation [4]: lower levels of degranulation; level of CD107a (LAMP) degranulation [5]: lower levels of degranulation
VAPWNSLSL |  |  | binding to HLA-Cw*0102 [6]: known to bind HLA-Cw*0102
VIDAMCHATL | KIR2DS2 BINDS | bind HLA-Cw*0102 | 
